Results published in US20070286858A1 (Pfizer, published 2007).

Tests used:
[1] = molecular target: T1, human RAGE-Fc fusion protein (human, UniProt Q15109 23-344); assay: BIACORE direct binding, hRAGE-Fc immobilized
T1 construct: also called hRAGE-Fc; huRAGE-Fc; not shown: Fc domain of human IgG
Method: The binding of selected murine and rat anti-RAGE antibodies to human and murine RAGE and to the V domains of human and murine RAGE was analyzed by BIACORE® direct binding assay. […] Solution of the anti-RAGE antibodies at two concentrations, 50 and 100 nm, were run over the immobilized RAGE-Fc proteins in duplicate. BIACORE™ technology utilizes changes in the refractive index at the surface layer upon binding of the anti-RAGE antibodies to the immobilized RAGE antigen. Binding is detected by surface plasmon resonance (SPR) of laser light refracting from the surface.
The kinetic rate constants (kₐ and kd) and association and dissociation constants (Kₐ and Kd) for the binding of murine and rat anti-RAGE antibodies to human and murine RAGE were determined by BIACORE™ direct binding assay. Analysis of the signal kinetics data for on-rate and off-rate allows the discrimination between non-specific and specific interactions.

[2] = molecular target: T1, human RAGE-Fc fusion protein; assay: antibody competition ELISA on hRAGE-Fc; competitor biotinylated XT-M4
[3] = molecular target: T2, soluble human streptavidin-tagged RAGE (human, UniProt Q15109 23-344); assay: BIACORE capture assay, antibody on CM5 chip, hRAGE-SA 0-100 nM in solution
T2 construct: also called hRAGE-SA; human RAGE-strep
Method: The assays were performed by coating antibodies onto a CM5 BIA chip with 5000-7000 RU.

[4] = molecular target: T1, human RAGE-Fc fusion protein; assay: ligand competition ELISA, panel Blocks hRAGE-Fc interaction with HMGB1; blocked ligand HMGB1
Method: Wells were washed and blocked as described above and exposed to 100 μl of pre-incubated mixtures of RAGE-Fc or TrkB-Fc (a non-specific Fc control), at 0.1 μg/ml, plus various forms of the indicated antibody preparation (dilutions of immune sera, hybridoma supernatants or purified antibodies) for 1 hour at room temperature.

murine RAGE, full length = molecular target: T3, murine RAGE, full length (mouse, UniProt Q62151 23-402); assay: cell-based ELISA, 293 cells transfected with murine RAGE
T3 construct: Expressed on 293 cells; also called mRAGE; 293-murine RAGE
T3 chain: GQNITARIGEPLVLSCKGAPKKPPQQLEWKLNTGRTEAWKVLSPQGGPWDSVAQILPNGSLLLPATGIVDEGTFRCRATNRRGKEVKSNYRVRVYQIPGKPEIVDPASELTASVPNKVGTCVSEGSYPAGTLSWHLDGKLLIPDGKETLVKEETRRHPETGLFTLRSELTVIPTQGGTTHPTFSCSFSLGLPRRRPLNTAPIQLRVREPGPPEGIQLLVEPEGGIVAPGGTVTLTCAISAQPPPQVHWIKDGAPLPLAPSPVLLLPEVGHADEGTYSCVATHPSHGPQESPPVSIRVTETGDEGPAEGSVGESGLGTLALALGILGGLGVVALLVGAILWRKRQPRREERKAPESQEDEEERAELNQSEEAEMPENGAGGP
Method: (§1) Human embryonic kidney 293 cells (American Tissue Type Culture, Manassas, Va.) cells were plated at 5×10⁶ cells per 10 cm² tissue culture plate and cultured overnight at 37° C. The next day cells were transfected with RAGE expression plasmids (pAdori1-3 vector encoding mouse, human, baboon, cynomologus monkey or rabbit RAGE) using LF2000 reagent (Invitrogen, Carlsbad Calif.) at a 4:1 ratio of reagent to plasmid DNA using the manufacturers protocol. Cells were harvested 48 hrs post-transfection using trypsin, washed once with phosphate buffered saline (PBS), then suspended in growth media without serum at a concentration of 2×10⁶ cells/ml.
(§2) Primary antibodies at 1 μg/ml were serially diluted at 1:2 or 1:3 in PBS containing 1% bovine serum albumin (BSA) in a 96-well plate. RAGE-transfected 293 cells or control parental 293 cells (50 μl) at 2×10⁶ cells/ml in serum-free growth medium were added to U-bottom 96 well plate for a final concentration of 1×10⁵ cells/well. The cells were centrifuged at 1600 rpm for 2 minutes. The supernatants were gently discarded by hand with a one-time swing and the plate was patted gently to loose the cell pellet. […] The cells were centrifuged and the supernatants are transferred to a fresh plate and read at 450 nm (Soft MAX pro 4.0, Molecular Devices Corporation, Sunnyvale, Calif.).

cynomolgus monkey RAGE = molecular target: T4, cynomolgus monkey RAGE (cynomolgus monkey (Macaca fascicularis), UniProt Q15109 23-404 (human entry)); assay: cell-based ELISA, 293 cells transfected with cynomolgus monkey RAGE
T4 construct: On transfected 293 cells or endogenous in monkey lung sections; also called 293-cyno monkey RAGE; RAGE in monkey lung
T4 chain: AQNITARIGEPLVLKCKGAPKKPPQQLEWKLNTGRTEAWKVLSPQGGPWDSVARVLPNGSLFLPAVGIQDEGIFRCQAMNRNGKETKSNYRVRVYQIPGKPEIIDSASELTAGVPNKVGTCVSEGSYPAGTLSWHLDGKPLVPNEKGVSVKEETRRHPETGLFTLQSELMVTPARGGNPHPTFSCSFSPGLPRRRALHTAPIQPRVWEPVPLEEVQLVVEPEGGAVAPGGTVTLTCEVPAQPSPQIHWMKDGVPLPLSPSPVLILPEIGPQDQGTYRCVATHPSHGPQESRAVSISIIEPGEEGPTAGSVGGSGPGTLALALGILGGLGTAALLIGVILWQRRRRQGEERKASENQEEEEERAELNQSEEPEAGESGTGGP
Method: as §1, §2

- Ka [1]: 1e+09 M⁻¹
- Kd [1]: 0.995 nM
- koff [1]: 0.00116 s⁻¹
- kon [1]: 1.16e+06 M⁻¹ s⁻¹
- IC50 (read off the curve) [2]: ~0.4 µg/mL
- Ka [3]: 2.03e+08 M⁻¹
- Kd [3]: 4.92 nM
- koff [3]: 0.0186 s⁻¹
- kon [3]: 3.78e+06 M⁻¹ s⁻¹
- IC50 (read off the curve) [4]: ~0.1 µg/mL
- EC50 (murine RAGE, full length): ~2.2 nM
- EC50 (cynomolgus monkey RAGE): ~2.33 nM
B1: XT-M4 (antibody, rat IgG2b, V domains shown)
VH: EVQLVESGGGLVQPGRSLKLSCVVSGFTFNNYWMTWIRQTPGKGLEWVASINNSGDNTYYPDSVKDRFTISRDNAKSTLYLQMNSLRSEDTATYYCTRGGDITTGFDYWGQGVMVTVSS
VL: DIQMTQSPSSMSVSLGDTITITCRASQDVGIYVNWFQQKPGKSPRRMIYRATNLADGVPSRFSGSRSGSIYSLTISSLESEDVADYHCLEFDEHPLTFGSGTKVEIK
notes: also called 1mRAGEP3/10; rat XT-M4
